Experimental data from PMC7057996, “Human glutaredoxin-1 can transfer copper to isolated metal binding domains of the P1B-type ATPase, ATP7B” (Scientific Reports, 2020).

Columns and labels:
[1] = molecular target: T1, ATP7B metal binding domains 5-6 (human, UniProt P35670 486-633); experiment: NMR titration; 15N-1H HSQC of apo-15N-hGrx1 (320-350 uM) titrated with unlabelled apo-Atox1 or apo-WLN5-6 to 2.0:1 (partner:hGrx1); no Cu; 4 °C; 10 mM MES/Na, 50 mM NaCl, 1 mM TCEP, pH 6.0; intensity changes of the Cys26 and Thr69 peaks fitted to a 1:1 binding model; details: both partners purified
T1 construct: Unlabelled apo protein in the NMR titrations; Cloned in pET-24d; also called WLN5-6; ATP7B MBDs 5-6; source: E. coli BL21 Codon Plus (DE3), purified (anion exchange, SEC)
T1 sequence (looked up): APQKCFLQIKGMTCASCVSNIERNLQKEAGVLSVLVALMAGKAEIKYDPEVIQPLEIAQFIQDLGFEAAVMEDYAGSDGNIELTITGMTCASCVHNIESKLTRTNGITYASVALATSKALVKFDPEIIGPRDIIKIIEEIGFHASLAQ

[2] = molecular target: T1, ATP7B metal binding domains 5-6; experiment: cell-based or functional assay

B1: human glutaredoxin-1 (enzyme)
chain: MAQEFVNCKIQPGKVVVFIKPTCPYCRRAQEILSQLPIKQGLLEFVDITATNHTNEIQDYLQQLTGARTVPRVFIGKDCIGGCSDLVSLQQSGELLTRLKQIGALQ
notes: human glutaredoxin-1 (hGrx1), UniProtKB P35754; printed as a 106-residue construct (excluding non-native residues left at the N-terminus by cleavage); 15N-labelled (or 13C/15N-labelled) for NMR; used as apo protein and loaded with Cu(I) (1:1); Non-native residues of the PreScission site remain at the N-terminus; also called hGrx1; Grx1; source: E. coli BL21 Codon Plus (DE3), purified (glutathione …)
- Kd [1]: 7 ± 4 µM
- Cu(I) distribution WLN5-6:hGrx1/Atox1 after incubation of Cu(I)-hGrx1 with apo-Atox1 and apo-WLN5-6 at 1:1:1, SEC-ICP-MS [2]: ~9 ratio WLN5-6:hGrx1/Atox1
